In US20250243240A1 one finds relative titer data, which are given here for one substance.

The assay deals with Vascular endothelial growth factor (VEGF) (Homo sapiens (Human)) (UniProt P15692).

In turn, “Peak 1 fraction of hydrophobic interaction chromatography of purified aflibercept (pool or library)” yielded a relative titer of 6.6%.
